Test results: patent publication US20100137420

Tests used:
[1] = target: T1, recombinant cystatin C
T1 chain: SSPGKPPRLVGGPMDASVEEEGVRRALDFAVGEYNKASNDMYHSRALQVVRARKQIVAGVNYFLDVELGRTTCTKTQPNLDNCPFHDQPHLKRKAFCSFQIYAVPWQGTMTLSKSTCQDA

[2] = target: cathepsin B (from THP-1 cell lysates), P07858

B1: MMP-2 (protein)
chain: YNFFPRKPKWDKNQITYRIIGYTPDLDPETVDDAFARAFQVWSDVTPLRFSRIHDGEADIMINFGRWEHGDGYPFDGKDGLLAHAFAPGTGVGGDSHFDDDELWTLGEGQVVRVKYGNADGEYCKFPFLFNGKEYNSCTDTGRSDGFLWCSTTYNFEKDGKYGFCPHEALFTMGGNAEGQPCKFPFRFQGTSYDSCTTEGRTDGYRWCGTTEDYDRDKKYGFCPETAMSTVGGNSEGAPCVFPFTFLGNKYESCTSAGRSDGKMWCATTANYDDDRKWGFCPDQGYSLFLVAAHEFGHAMGLEHSQDPGALMAPIYTYTKNFRLSQDDIKGIQELYGASPDIDLGTGPTPTLGPVTPEICKQDIVFDGIAQIRGEIFFFKDRFIWRTVTPRDKPMGPLLVATFWPELPEKIDAVYEAPQEEKAVFFAGNEYWIYSASTLERGYPKPLTSLGLPPDVQRVDAAFNWSKNKKTYIFAGDKFWRYNEVKKKMDPGFPKLIADAWNAIPDNLDAVVDLQGGGHSYFFKGAYYLKLENQSLKSVKFGSIKSDWLGC
In the case of B1, the “cleavage of recombinant cystatin C” value [1] is reported as “MMP-2 cleaved cystatin C at three unique sites” and the “cathepsin B activity (fluorogenic Ac-Arg-Arg-AFC assay)” value [2] is reported as “Cathepsin D and MMP-2 alone had no effect on cathepsin B activity”.
